From paper PMC9482650, “Quantitative fragmentomics allow affinity mapping of interactomes” (Nature Communications, 2022)

T1: PDZD7_3, Q9H5P4
T1 sequence (Q9H5P4 857-944, limits assumed, looked up): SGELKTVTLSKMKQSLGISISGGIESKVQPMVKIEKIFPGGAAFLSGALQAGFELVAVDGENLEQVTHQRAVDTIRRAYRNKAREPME

T2: GRIP1_4, Q9Y3R0
T2 sequence (Q9Y3R0 467-571, limits assumed, looked up): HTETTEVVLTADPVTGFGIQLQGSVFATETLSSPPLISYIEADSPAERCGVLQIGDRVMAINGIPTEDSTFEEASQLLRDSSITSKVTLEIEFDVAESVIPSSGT

T3: SNTG2, Q9NY99
T3 sequence (Q9NY99 68-166, limits assumed, looked up): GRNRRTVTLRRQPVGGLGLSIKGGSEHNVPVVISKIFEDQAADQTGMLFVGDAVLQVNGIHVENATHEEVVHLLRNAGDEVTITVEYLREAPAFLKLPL

T4: SHANK1, Q9Y566
T4 sequence (Q9Y566 658-767, limits assumed, looked up): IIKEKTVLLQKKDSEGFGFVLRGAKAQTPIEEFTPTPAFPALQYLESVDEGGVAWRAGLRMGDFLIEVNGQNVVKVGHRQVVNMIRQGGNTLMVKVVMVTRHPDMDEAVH

T5: SIPA1L2, Q9P2F8
T5 sequence (Q9P2F8 945-1036, limits assumed, looked up): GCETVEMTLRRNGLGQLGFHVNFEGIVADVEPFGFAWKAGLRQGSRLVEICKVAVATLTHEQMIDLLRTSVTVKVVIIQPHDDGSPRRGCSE

T6: PARD3B_1, Q8TEW8
T6 sequence (Q8TEW8 196-299, limits assumed, looked up): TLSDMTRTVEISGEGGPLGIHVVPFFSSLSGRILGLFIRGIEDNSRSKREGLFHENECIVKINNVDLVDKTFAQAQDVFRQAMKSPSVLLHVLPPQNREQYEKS

T7: PTPN13_1, Q12923
T7 sequence (Q12923 1088-1188, limits assumed, looked up): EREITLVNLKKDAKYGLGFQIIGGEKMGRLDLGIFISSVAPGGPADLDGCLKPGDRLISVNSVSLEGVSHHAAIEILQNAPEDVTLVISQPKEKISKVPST

T8: LNX2_2, Q8N448
T8 sequence (Q8N448 334-432, limits assumed, looked up): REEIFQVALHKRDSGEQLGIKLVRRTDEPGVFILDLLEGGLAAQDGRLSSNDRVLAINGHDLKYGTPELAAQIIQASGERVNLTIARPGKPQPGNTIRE

T9: MPP2, Q14168
T9 sequence (Q14168 180-250, limits assumed, looked up): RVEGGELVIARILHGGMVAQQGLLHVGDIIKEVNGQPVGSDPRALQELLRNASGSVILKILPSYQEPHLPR

T10: DLG3_3, Q92796
T10 sequence (Q92796 374-475, limits assumed, looked up): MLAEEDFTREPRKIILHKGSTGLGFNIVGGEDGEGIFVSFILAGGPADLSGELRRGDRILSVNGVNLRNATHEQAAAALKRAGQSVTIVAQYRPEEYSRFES

T11: DFNB31_1, Q9P202
T11 sequence (Q9P202 135-233, limits assumed, looked up): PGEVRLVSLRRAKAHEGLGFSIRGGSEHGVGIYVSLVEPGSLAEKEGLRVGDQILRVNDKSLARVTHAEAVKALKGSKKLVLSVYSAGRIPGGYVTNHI


Biological target: T1, PDZD7_3, Q9H5P4
Test: holdup assay
Set-up: key: below the threshold = too weak to quantify, mostly under pKd 3.1 to 4
Conditions: plain residues with an end cap or a label only (N-terminal biotin on a linker: ado-ado)

Row | Binder | pKd
1 | YNNCLEILRV [DCAF7, P61962] | below the threshold
2 | LGRSTPQSEV [DGKH, Q86XP1] | 4.4

Biological target: CASK, O14936
Test: holdup assay
Set-up: key: below the threshold = too weak to quantify, mostly under pKd 3.1 to 4
Conditions: plain residues with an end cap or a label only (N-terminal biotin on a linker: ado-ado)

Sequence of CASK, O14936 (O14936 487-570): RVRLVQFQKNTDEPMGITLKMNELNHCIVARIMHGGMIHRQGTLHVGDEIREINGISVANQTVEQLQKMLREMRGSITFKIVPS

Row | Binder | pKd
3 | YNNCLEILRV [DCAF7, P61962] | below the threshold
4 | LGRSTPQSEV [DGKH, Q86XP1] | below the threshold

Biological target: T2, GRIP1_4, Q9Y3R0
Test: holdup assay
Set-up: key: below the threshold = too weak to quantify, mostly under pKd 3.1 to 4
Conditions: plain residues with an end cap or a label only (N-terminal biotin on a linker: ado-ado)

Row | Binder | pKd
5 | YNNCLEILRV [DCAF7, P61962] | below the threshold
6 | LGRSTPQSEV [DGKH, Q86XP1] | below the threshold

Biological target: GRASP, Q7Z6J2
Test: holdup assay
Set-up: key: below the threshold = too weak to quantify, mostly under pKd 3.1 to 4
Conditions: plain residues with an end cap or a label only (N-terminal biotin on a linker: ado-ado)

Sequence of GRASP, Q7Z6J2 (Q7Z6J2 96-193): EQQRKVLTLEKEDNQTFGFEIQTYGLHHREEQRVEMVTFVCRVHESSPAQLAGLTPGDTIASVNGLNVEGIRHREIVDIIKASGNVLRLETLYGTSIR

Row | Binder | pKd
7 | YNNCLEILRV [DCAF7, P61962] | 3.9
8 | LGRSTPQSEV [DGKH, Q86XP1] | 3.51

Biological target: Inadl_9, Q8NI35
Test: holdup assay
Set-up: key: below the threshold = too weak to quantify, mostly under pKd 3.1 to 4
Conditions: plain residues with an end cap or a label only (N-terminal biotin on a linker: ado-ado)

Sequence of Inadl_9, Q8NI35 (Q8NI35 1530-1615): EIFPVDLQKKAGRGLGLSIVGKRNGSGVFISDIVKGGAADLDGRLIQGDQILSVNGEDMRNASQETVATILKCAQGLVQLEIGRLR

Row | Binder | pKd
9 | YNNCLEILRV [DCAF7, P61962] | 3.57
10 | LGRSTPQSEV [DGKH, Q86XP1] | below the threshold

Biological target: T3, SNTG2, Q9NY99
Test: holdup assay
Set-up: key: below the threshold = too weak to quantify, mostly under pKd 3.1 to 4
Conditions: plain residues with an end cap or a label only (N-terminal biotin on a linker: ado-ado)

Row | Binder | pKd
11 | YNNCLEILRV [DCAF7, P61962] | below the threshold
12 | LGRSTPQSEV [DGKH, Q86XP1] | below the threshold

Biological target: MAGI1_1, Q96QZ7
Test: holdup assay
Set-up: key: below the threshold = too weak to quantify, mostly under pKd 3.1 to 4
Conditions: plain residues with an end cap or a label only (N-terminal biotin on a linker: ado-ado)

Sequence of MAGI1_1, Q96QZ7 (Q96QZ7 1-106): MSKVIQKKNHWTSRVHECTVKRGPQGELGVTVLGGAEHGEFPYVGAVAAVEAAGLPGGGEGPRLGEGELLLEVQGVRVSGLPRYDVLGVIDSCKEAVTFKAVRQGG

Row | Binder | pKd
13 | YNNCLEILRV [DCAF7, P61962] | below the threshold
14 | LGRSTPQSEV [DGKH, Q86XP1] | below the threshold

Biological target: T4, SHANK1, Q9Y566
Test: holdup assay
Set-up: key: below the threshold = too weak to quantify, mostly under pKd 3.1 to 4
Conditions: plain residues with an end cap or a label only (N-terminal biotin on a linker: ado-ado)

Row | Binder | pKd
15 | YNNCLEILRV [DCAF7, P61962] | below the threshold
16 | LGRSTPQSEV [DGKH, Q86XP1] | below the threshold

Biological target: LNX1_1, Q8TBB1
Test: holdup assay
Set-up: key: below the threshold = too weak to quantify, mostly under pKd 3.1 to 4
Conditions: plain residues with an end cap or a label only (N-terminal biotin on a linker: ado-ado)

Sequence of LNX1_1, Q8TBB1 (Q8TBB1 261-371): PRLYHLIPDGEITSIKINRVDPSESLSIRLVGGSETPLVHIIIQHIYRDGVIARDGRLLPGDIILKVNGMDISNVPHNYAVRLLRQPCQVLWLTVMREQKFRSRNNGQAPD

Row | Binder | pKd
17 | YNNCLEILRV [DCAF7, P61962] | below the threshold
18 | LGRSTPQSEV [DGKH, Q86XP1] | 4.01

Biological target: T5, SIPA1L2, Q9P2F8
Test: holdup assay
Set-up: key: below the threshold = too weak to quantify, mostly under pKd 3.1 to 4
Conditions: plain residues with an end cap or a label only (N-terminal biotin on a linker: ado-ado)

Row | Binder | pKd
19 | YNNCLEILRV [DCAF7, P61962] | below the threshold
20 | LGRSTPQSEV [DGKH, Q86XP1] | below the threshold

Biological target: T6, PARD3B_1, Q8TEW8
Test: holdup assay
Set-up: key: below the threshold = too weak to quantify, mostly under pKd 3.1 to 4
Conditions: plain residues with an end cap or a label only (N-terminal biotin on a linker: ado-ado)

Row | Binder | pKd
21 | YNNCLEILRV [DCAF7, P61962] | 4.01
22 | LGRSTPQSEV [DGKH, Q86XP1] | below the threshold

Biological target: T7, PTPN13_1, Q12923
Test: holdup assay
Set-up: key: below the threshold = too weak to quantify, mostly under pKd 3.1 to 4
Conditions: plain residues with an end cap or a label only (N-terminal biotin on a linker: ado-ado)

Row | Binder | pKd
23 | YNNCLEILRV [DCAF7, P61962] | below the threshold
24 | LGRSTPQSEV [DGKH, Q86XP1] | below the threshold

Biological target: IL16_1, Q14005
Test: holdup assay
Set-up: key: below the threshold = too weak to quantify, mostly under pKd 3.1 to 4
Conditions: plain residues with an end cap or a label only (N-terminal biotin on a linker: ado-ado)

Sequence of IL16_1, Q14005 (Q14005 210-306): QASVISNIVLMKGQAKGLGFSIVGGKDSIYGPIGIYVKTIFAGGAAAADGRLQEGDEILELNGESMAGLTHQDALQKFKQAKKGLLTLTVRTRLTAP

Row | Binder | pKd
25 | YNNCLEILRV [DCAF7, P61962] | below the threshold
26 | LGRSTPQSEV [DGKH, Q86XP1] | below the threshold

Biological target: MAGI2_6, Q86UL8
Test: holdup assay
Set-up: key: below the threshold = too weak to quantify, mostly under pKd 3.1 to 4
Conditions: plain residues with an end cap or a label only (N-terminal biotin on a linker: ado-ado)

Sequence of MAGI2_6, Q86UL8 (Q86UL8 1141-1229): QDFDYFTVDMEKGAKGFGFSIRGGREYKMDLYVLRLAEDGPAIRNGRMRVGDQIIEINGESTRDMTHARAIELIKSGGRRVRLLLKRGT

Row | Binder | pKd
27 | YNNCLEILRV [DCAF7, P61962] | below the threshold
28 | LGRSTPQSEV [DGKH, Q86XP1] | below the threshold

Biological target: T8, LNX2_2, Q8N448
Test: holdup assay
Set-up: key: below the threshold = too weak to quantify, mostly under pKd 3.1 to 4
Conditions: plain residues with an end cap or a label only (N-terminal biotin on a linker: ado-ado)

Row | Binder | pKd
29 | YNNCLEILRV [DCAF7, P61962] | 4.91
30 | LGRSTPQSEV [DGKH, Q86XP1] | below the threshold

Biological target: T9, MPP2, Q14168
Test: holdup assay
Set-up: key: below the threshold = too weak to quantify, mostly under pKd 3.1 to 4
Conditions: plain residues with an end cap or a label only (N-terminal biotin on a linker: ado-ado)

Row | Binder | pKd
31 | YNNCLEILRV [DCAF7, P61962] | below the threshold
32 | LGRSTPQSEV [DGKH, Q86XP1] | below the threshold

Biological target: NHERF4_2, Q86UT5
Test: holdup assay
Set-up: key: below the threshold = too weak to quantify, mostly under pKd 3.1 to 4
Conditions: plain residues with an end cap or a label only (N-terminal biotin on a linker: ado-ado)

Sequence of NHERF4_2, Q86UT5 (Q86UT5 220-308): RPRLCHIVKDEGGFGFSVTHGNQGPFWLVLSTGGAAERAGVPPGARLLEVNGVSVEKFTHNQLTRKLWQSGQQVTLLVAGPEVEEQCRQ

Row | Binder | pKd
33 | YNNCLEILRV [DCAF7, P61962] | below the threshold
34 | LGRSTPQSEV [DGKH, Q86XP1] | below the threshold

Biological target: ARHGEF12, Q9NZN5-2
Test: holdup assay
Set-up: key: below the threshold = too weak to quantify, mostly under pKd 3.1 to 4
Conditions: plain residues with an end cap or a label only (N-terminal biotin on a linker: ado-ado)

Sequence of ARHGEF12, Q9NZN5-2 (Q9NZN5 other isoform, or with tags, fused parts or gaps): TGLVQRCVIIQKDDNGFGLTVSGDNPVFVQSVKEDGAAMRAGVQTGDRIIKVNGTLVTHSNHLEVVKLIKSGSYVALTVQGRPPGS

Row | Binder | pKd
35 | YNNCLEILRV [DCAF7, P61962] | below the threshold
36 | LGRSTPQSEV [DGKH, Q86XP1] | 4.18

Biological target: SCRIB_3, Q14160
Test: holdup assay
Set-up: key: below the threshold = too weak to quantify, mostly under pKd 3.1 to 4
Conditions: plain residues with an end cap or a label only (N-terminal biotin on a linker: ado-ado)

Sequence of SCRIB_3, Q14160 (Q14160 999-1103): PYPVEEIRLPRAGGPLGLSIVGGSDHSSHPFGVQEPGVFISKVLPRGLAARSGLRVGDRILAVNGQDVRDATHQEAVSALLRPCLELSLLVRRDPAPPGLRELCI

Row | Binder | pKd
37 | YNNCLEILRV [DCAF7, P61962] | below the threshold
38 | LGRSTPQSEV [DGKH, Q86XP1] | 3.8

Biological target: T10, DLG3_3, Q92796
Test: holdup assay
Set-up: key: below the threshold = too weak to quantify, mostly under pKd 3.1 to 4
Conditions: plain residues with an end cap or a label only (N-terminal biotin on a linker: ado-ado)

Row | Binder | pKd
39 | YNNCLEILRV [DCAF7, P61962] | below the threshold
40 | LGRSTPQSEV [DGKH, Q86XP1] | below the threshold

Biological target: NHERF4_1, Q86UT5-2
Test: holdup assay
Set-up: key: below the threshold = too weak to quantify, mostly under pKd 3.1 to 4
Conditions: plain residues with an end cap or a label only (N-terminal biotin on a linker: ado-ado)

Sequence of NHERF4_1, Q86UT5-2 (Q86UT5 other isoform, or with tags, fused parts or gaps): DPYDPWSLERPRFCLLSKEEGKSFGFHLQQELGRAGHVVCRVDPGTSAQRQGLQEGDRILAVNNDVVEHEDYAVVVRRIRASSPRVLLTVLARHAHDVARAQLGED

Row | Binder | pKd
41 | YNNCLEILRV [DCAF7, P61962] | below the threshold
42 | LGRSTPQSEV [DGKH, Q86XP1] | below the threshold

Biological target: FRMPD4, Q14CM0
Test: holdup assay
Set-up: key: below the threshold = too weak to quantify, mostly under pKd 3.1 to 4
Conditions: plain residues with an end cap or a label only (N-terminal biotin on a linker: ado-ado)

Sequence of FRMPD4, Q14CM0 (Q14CM0 67-160): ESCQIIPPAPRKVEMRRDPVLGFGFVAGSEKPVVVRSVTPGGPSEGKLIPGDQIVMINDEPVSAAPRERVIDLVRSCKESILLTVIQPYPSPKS

Row | Binder | pKd
43 | YNNCLEILRV [DCAF7, P61962] | below the threshold
44 | LGRSTPQSEV [DGKH, Q86XP1] | below the threshold

Biological target: T11, DFNB31_1, Q9P202
Test: holdup assay
Set-up: key: below the threshold = too weak to quantify, mostly under pKd 3.1 to 4
Conditions: plain residues with an end cap or a label only (N-terminal biotin on a linker: ado-ado)

Row | Binder | pKd
45 | YNNCLEILRV [DCAF7, P61962] | below the threshold
46 | LGRSTPQSEV [DGKH, Q86XP1] | 3.52

Biological target: GRID2IP_2, A4D2P6
Test: holdup assay
Set-up: key: below the threshold = too weak to quantify, mostly under pKd 3.1 to 4
Conditions: plain residues with an end cap or a label only (N-terminal biotin on a linker: ado-ado)

Sequence of GRID2IP_2, A4D2P6 (A4D2P6 272-370): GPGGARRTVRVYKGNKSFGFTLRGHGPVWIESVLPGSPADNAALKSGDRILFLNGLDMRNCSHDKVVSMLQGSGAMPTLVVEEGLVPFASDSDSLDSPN

Row | Binder | pKd
47 | YNNCLEILRV [DCAF7, P61962] | below the threshold
48 | LGRSTPQSEV [DGKH, Q86XP1] | 4.16

Biological target: NHERF2_2, Q15599
Test: holdup assay
Set-up: key: below the threshold = too weak to quantify, mostly under pKd 3.1 to 4
Conditions: plain residues with an end cap or a label only (N-terminal biotin on a linker: ado-ado)

Sequence of NHERF2_2, Q15599 (Q15599 142-238): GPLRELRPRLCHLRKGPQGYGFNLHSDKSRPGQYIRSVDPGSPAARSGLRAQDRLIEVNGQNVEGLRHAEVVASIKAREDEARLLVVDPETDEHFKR

Row | Binder | pKd
49 | YNNCLEILRV [DCAF7, P61962] | below the threshold
50 | LGRSTPQSEV [DGKH, Q86XP1] | below the threshold

Biological target: LDB3, O75112
Test: holdup assay
Set-up: key: below the threshold = too weak to quantify, mostly under pKd 3.1 to 4
Conditions: plain residues with an end cap or a label only (N-terminal biotin on a linker: ado-ado)

Sequence of LDB3, O75112 (O75112 1-94): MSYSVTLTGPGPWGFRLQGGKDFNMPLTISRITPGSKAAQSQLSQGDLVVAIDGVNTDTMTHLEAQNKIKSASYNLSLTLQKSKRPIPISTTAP

Row | Binder | pKd
51 | YNNCLEILRV [DCAF7, P61962] | below the threshold
52 | LGRSTPQSEV [DGKH, Q86XP1] | below the threshold
